Test [1] addresses albumin (Sigma A9731) (human) (UniProt P02768). The test is described as follows: SPR (CM5 chip), albumin immobilised, FcRn in solution, pH 5.8, 25 C.
The target is the same in test [2]. The test is described as follows: SPR (C1 chip), FcRn-biotin on surface, albumin injected, pH 5.8, 25 C.
In test [3] the target is human IgG3 (human) (UniProt P01860). As to the kind of experiment: SPR (CM5 chip), IgG immobilised, FcRn in solution, pH 5.8, 25 C.
Test [4] addresses human IgG4 (human). Described as above.
The next test deals with human IgG1 (human). As to the kind of experiment: SPR (C1 chip), FcRn-biotin on surface, IgG injected, pH 5.8; estimated from limited surface saturation.
The target in the next test is human IgG2 (human). The description is as above.
Test [5] deals with human IgG3 (human) (UniProt P01860). The description is as above.
The target in test [6] is human IgG4 (human). The description is as above.

Sequence of human IgG3 (human) (P01860 other isoform, or with tags, fused parts or gaps): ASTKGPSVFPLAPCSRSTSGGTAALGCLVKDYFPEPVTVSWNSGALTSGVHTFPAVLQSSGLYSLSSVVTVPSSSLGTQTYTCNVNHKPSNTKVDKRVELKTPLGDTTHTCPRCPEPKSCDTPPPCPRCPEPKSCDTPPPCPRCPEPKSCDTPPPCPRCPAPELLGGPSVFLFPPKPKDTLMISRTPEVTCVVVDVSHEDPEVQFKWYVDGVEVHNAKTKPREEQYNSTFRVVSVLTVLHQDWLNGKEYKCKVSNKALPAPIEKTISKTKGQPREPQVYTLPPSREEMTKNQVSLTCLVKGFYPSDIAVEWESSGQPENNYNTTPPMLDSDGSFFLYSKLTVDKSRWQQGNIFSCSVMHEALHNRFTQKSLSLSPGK
Sequence of human IgG2 (human) (Fc, as listed by the source limits assumed): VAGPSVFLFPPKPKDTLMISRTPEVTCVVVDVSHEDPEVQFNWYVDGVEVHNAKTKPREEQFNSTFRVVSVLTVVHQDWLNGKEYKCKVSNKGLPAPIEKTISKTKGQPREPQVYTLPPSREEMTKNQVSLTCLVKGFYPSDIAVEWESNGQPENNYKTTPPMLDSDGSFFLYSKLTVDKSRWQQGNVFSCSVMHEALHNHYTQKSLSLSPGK

In general, Kd refers to the equilibrium constant for the complex coming apart. Regarding “FcRn W131R (extracellular domain with beta2 microglobulin) (from UniProt P61769 21-119) (receptor)”, the Kd came to 440 nM in test [1] and 1700 nM in test [2].

In test [1], “FcRn E133K (extracellular domain with beta2 microglobulin) (from UniProt P61769 21-119) (receptor)” displayed a Kd of 960 nM.

For “FcRn M118I (extracellular domain with beta2 microglobulin) (from UniProt P61769 21-119) (receptor)”, the Kd was 210 nM with human IgG3 (human) [3]; 239 nM in the test with human IgG4 (human) [4]; 480 nM in test [1]; 1900 nM in test [2]; 5.2 µM with human IgG1 (human); 6.6 µM in the test with human IgG2 (human). Further, the Kd with human IgG3 (human) [5] is 4.2 µM; in the test with human IgG4 (human) [6], 12.6 µM.
